Columns and labels:
human IGFBP-1 [1] = biological target: T1, human IGFBP-1 (human, UniProt P08833 26-259); test: competitive phage ELISA
T1 construct: mature; Secreted recombinant protein; also called IGFBP-I
T1 sequence (looked up): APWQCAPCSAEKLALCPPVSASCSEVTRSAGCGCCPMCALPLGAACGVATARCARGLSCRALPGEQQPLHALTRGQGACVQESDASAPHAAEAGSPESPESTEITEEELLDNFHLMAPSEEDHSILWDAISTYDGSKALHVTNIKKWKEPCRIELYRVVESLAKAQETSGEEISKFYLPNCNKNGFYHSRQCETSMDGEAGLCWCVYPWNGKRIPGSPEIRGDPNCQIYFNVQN
Description: (§1) Phage particles were harvested and resuspended in PBS buffer as described in Lowman, H. B., "Phage Display of Peptide Libraries on Protein Scaffolds," in Cabilly, S. (ed.), *Combinatorial Peptide Library Protocols* (Humana Press Inc.: Totowa, N.J., 1998), pp. 249–264. Then phage concentrations were normalized to yield a maximal ELISA signal of 0.2–0.4 for each mutant (Lowman, in Cabilly, S. (ed.), supra). Threefold serial dilutions of soluble competitor were prepared on non-absorbent microtiter plates (Nunc, F, 96 wells) with binding buffer (0.5% TWEEN™ 20/PBS) containing phage at the previously-determined concentrations. The dilution range of competitor protein extended over six orders of magnitude, starting at 5 µM for IGFBP-1 and 500 nM for IGFBP-3. After blocking, the plates containing immobilized target were washed with 0.05% TWEEN™/PBS buffer and subsequently incubated with 80 µl/well of the premixed phage-competitor solutions for 1 hour at room temperature. […] Numbers in Table I represent mean±standard deviation of individually assessed $IC50$ values.
(§2) At least two different clones of every mutant were tested.

[2] = biological target: T2, recombinant human IGFBP-3 (human, UniProt P17936 28-291); test: competitive phage ELISA; IC50mut/IC50 G1S-A70V
T2 construct: mature; Secreted recombinant protein

human IGFBP-1 [3] = biological target: T1, human IGFBP-1; test: competitive phage ELISA; IC50mut/IC50 G1S-A70V
[4] = biological target: T2, recombinant human IGFBP-3; test: phage ELISA value repeated from Table I; IC50mut/IC50 G1S-A70V
human IGFBP-1 [5] = biological target: T1, human IGFBP-1; test: as above
[6] = biological target: T3, human IGFBP-1 (human), P08833; test: as above; details: remark: other sources report otherwise
T3 chain: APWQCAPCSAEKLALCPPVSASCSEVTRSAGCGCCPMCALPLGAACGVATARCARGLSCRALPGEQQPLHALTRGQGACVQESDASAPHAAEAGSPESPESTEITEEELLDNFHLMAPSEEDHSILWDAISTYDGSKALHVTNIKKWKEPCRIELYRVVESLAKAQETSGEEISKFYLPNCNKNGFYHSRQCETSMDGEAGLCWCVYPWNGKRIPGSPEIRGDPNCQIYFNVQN

[7] = biological target: T2, recombinant human IGFBP-3; test: competitive phage ELISA, IGFBP-3-coated wells, soluble IGFBP-3 competitor (FIG. 3B)
Description: Phage particles were harvested and resuspended in PBS buffer as described in Lowman, H. B., "Phage Display of Peptide Libraries on Protein Scaffolds," in Cabilly, S. (ed.), *Combinatorial Peptide Library Protocols* (Humana Press Inc.: Totowa, N.J., 1998), pp. 249–264. Then phage concentrations were normalized to yield a maximal ELISA signal of 0.2–0.4 for each mutant (Lowman, in Cabilly, S. (ed.), supra). Threefold serial dilutions of soluble competitor were prepared on non-absorbent microtiter plates (Nunc, F, 96 wells) with binding buffer (0.5% TWEEN™ 20/PBS) containing phage at the previously-determined concentrations. The dilution range of competitor protein extended over six orders of magnitude, starting at 5 µM for IGFBP-1 and 500 nM for IGFBP-3.

[8] = biological target: T3, human IGFBP-1 (human), P08833; test: competitive phage ELISA; IC50mut/IC50 G1S-A70V; details: remark: other sources report otherwise
[9] = biological target: T2, recombinant human IGFBP-3; test: competitive phage ELISA
Description: as §1, §2

T2 sequence (P17936 28-291): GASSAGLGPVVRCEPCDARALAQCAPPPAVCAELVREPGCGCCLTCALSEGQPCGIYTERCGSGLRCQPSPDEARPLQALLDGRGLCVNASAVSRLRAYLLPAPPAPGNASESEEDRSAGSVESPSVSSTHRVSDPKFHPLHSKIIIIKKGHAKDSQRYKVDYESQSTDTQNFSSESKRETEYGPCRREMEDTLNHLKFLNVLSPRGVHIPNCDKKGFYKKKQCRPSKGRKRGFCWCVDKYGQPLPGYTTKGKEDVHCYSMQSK

| Molecule | IC50 (human IGFBP-1 [1]) | relative IC50 [2] | relative IC50 (human IGFBP-1 [3]) | IC50 [9] | further results |
| --- | --- | --- | --- | --- | --- |
| Ala(1-3)-IGF-I displayed on phage (from UniProt P69168 267-424) (ligand) | 90.4 nM | 1.5 | 11 | – | – |
| IGF-I G30A displayed on phage (from UniProt P69168 267-424) (ligand) | – | 0.8 | 0.9 | – | – |
| IGF-I G1S-A70V displayed on phage (from UniProt P69168 267-424) (ligand) | – | 1 | 1 | – | relative IC50 [4]: 1; relative IC50 (human IGFBP-1 [5]): 1 |
| IGF-I S34A displayed on phage (from UniProt P69168 267-424) (ligand) | – | 2.2 | 1.2 | – | – |
| IGF-I P28A displayed on phage (from UniProt P69168 267-424) (ligand) | – | 1.9 | 1.1 | – | – |
| IGF-I G32A displayed on phage (from UniProt P69168 267-424) (ligand) | – | 1 | 1.3 | – | – |
| IGF-I Y31A displayed on phage (from UniProt P69168 267-424) (ligand) | – | 1 | 0.8 | – | – |
| IGF-I G7A displayed on phage (from UniProt P69168 267-424) (ligand) | – | 6.1 | > 100 | – | – |
| IGF-I T29A displayed on phage (from UniProt P69168 267-424) (ligand) | – | 1.6 | 0.9 | – | – |
| IGF-I S33A displayed on phage (from UniProt P69168 267-424) (ligand) | – | 1.3 | 1.1 | – | – |
| IGF-I F49A displayed on phage (ligand, On phage; G1S-A70V template; also called IGF-F49A phage; not shown: Display partner: M13 gene III protein fragment (residues 249-406, mature count) and the junction to it) SPETLCGAELVDALQFVCGDRGFYFNKPTGYGSSSRRAPQTGIVDECCARSCDLRRLEMYCAPLKPAKSV | – | – | – | – | relative IC50 [6]: > 100; ratio of IC50 against G1S-A70V phage [7]: < 4 fold; relative IC50 [8]: > 100 |
| IGF-I S51A displayed on phage (ligand, On phage; G1S-A70V template; not shown: Display partner: M13 gene III protein fragment (residues 249-406, mature count) and the junction to it) SPETLCGAELVDALQFVCGDRGFYFNKPTGYGSSSRRAPQTGIVDECCFRACDLRRLEMYCAPLKPAKSV | 13.4 nM | – | – | 0.65 nM | – |
| IGF-I Y60A displayed on phage (ligand, On phage; G1S-A70V template; not shown: M13 gene III protein fragment (residues 249-406), the phage display carrier, and its junction to IGF-I) SPETLCGAELVDALQFVCGDRGFYFNKPTGYGSSSRRAPQTGIVDECCFRSCDLRRLEMACAPLKPAKSV | 6.6 nM | – | – | 0.52 nM | – |
| IGF-I S69A displayed on phage (ligand, not shown: large carriers; small tags and cut ends, On phage; G1S-A70V template) SPETLCGAELVDALQFVCGDRGFYFNKPTGYGSSSRRAPQTGIVDECCFRSCDLRRLEMYCAPLKPAKAV | 12.8 nM | – | – | 0.71 nM | – |
| IGF-I T4A displayed on phage (ligand, not shown: large carriers; small tags and cut ends, On phage; G1S-A70V template) SPEALCGAELVDALQFVCGDRGFYFNKPTGYGSSSRRAPQTGIVDECCFRSCDLRRLEMYCAPLKPAKSV | 19.4 nM | – | – | 0.8 nM | – |
| IGF-I V17A displayed on phage (ligand, On phage; G1S-A70V template; not shown: M13 gene III fragment (residues 249-406), the display carrier, and its junction) SPETLCGAELVDALQFACGDRGFYFNKPTGYGSSSRRAPQTGIVDECCFRSCDLRRLEMYCAPLKPAKSV | 42.9 nM | – | – | 3.67 nM | – |
| IGF-I Y24A displayed on phage (ligand, On phage; G1S-A70V template; not shown: Display carrier: M13 gene III protein fragment (residues 249-406) and the junction to it) SPETLCGAELVDALQFVCGDRGFAFNKPTGYGSSSRRAPQTGIVDECCFRSCDLRRLEMYCAPLKPAKSV | 13.3 nM | – | – | 2.53 nM | – |

Reference: US6403764
